Data published in the supplement of paper PMC11246515.
± gives the standard deviation of the averaged measurements.

Test: total protein half-life in vivo (active degradation + dilution); higher = more stable protein
[1] = E. coli NCM3722 delta-clpP, growth: N-lim chemostat, doubling time 6 h
[2] = E. coli NCM3722 delta-hslV, growth: N-lim chemostat, doubling time 6 h
[3] = E. coli NCM3722 delta-lon, growth: N-lim chemostat, doubling time 6 h
[4] = E. coli NCM3722 delta-smpB, growth: N-lim chemostat, doubling time 6 h
[5] = wild type E. coli NCM3722, growth: C-lim chemostat, doubling time 3 h
[6] = wild type E. coli NCM3722, growth: C-lim chemostat, doubling time 6 h
[7] = wild type E. coli NCM3722, growth: C-lim chemostat, doubling time 12 h
[8] = wild type E. coli NCM3722, growth: N-lim chemostat, doubling time 6 h
[9] = wild type E. coli NCM3722, growth: N-lim chemostat, doubling time 12 h
[10] = wild type E. coli NCM3722, growth: P-lim chemostat, doubling time 6 h
[11] = wild type E. coli NCM3722, growth: P-lim chemostat, doubling time 12 h
[12] = E. coli NCM3722 delta-clpP delta-lon delta-hslV, growth: N-lim chemostat, doubling time 6 h

Sequence	total protein half-life in vivo [1]	total protein half-life in vivo [2]	total protein half-life in vivo [3]	total protein half-life in vivo [4]	total protein half-life in vivo [5]	total protein half-life in vivo [6]	total protein half-life in vivo [7]	total protein half-life in vivo [8]	total protein half-life in vivo [9]	total protein half-life in vivo [10]	total protein half-life in vivo [11]	total protein half-life in vivo [12]
MIQKSKIKDLVVFTDENNSKYLNVLNDFLSYNINIIKVFRSIDDTKVMLIDTDYGKLILKVFSPKVKRNERFFKSLLKGDYYERLFEQTQKVRNEGLNTLNDFYLLAERKTLRFVHTYIMIIEYIDGIELCDMPDIDDALKNKIQQSINALHQHGMVSGDPHRGNFIIKNGEVRIIDLSGKRASAQRKAKDRIDLERHYGIKNEIRDLGYYLLVYRKKMRNFMRRLKGKPAR	6.73 ± 0.18 h	5.7 ± 0.17 h	6.35 ± 0.15 h	6.04 ± 0.22 h	3.31 ± 0.043 h	5.885 ± 0.011 h	9.9 ± 1 h	5.86 ± 0.76 h	12.09 ± 0.019 h	5.84 ± 0.34 h	11.8 ± 0.82 h	
MSRINKFVLTVSLLIFIMISAVACGIYTQMVKERVYSLKQSVIDTAFAVANIAEYRRSVAIDLINTLNPTEEQLLVGLRTAYADSVSPSYLYDVGPYLISSDECIQVKEFEKNYCADIMQVVKYRHVKNTGFISFDGKTFVYYLYPVTHNRSLIFLLGLERFSLLSKSLAMDSENLMFSLFKNGKPVTGDEYNAKNAIFTVSEAMEHFAYLPTGLYVFAYKKDVYLRVCTLIIFFAALVAVISGASCLYLVRRVINRGIVEKEAIINNHFERVLDGGLFFSAADVKKLYSMYNSAFLDDLTKAMGRKSFDEDLKALPEKGGYLCLFDVDKFKNINDTFGHLLGDEVLMKVVKILKSQIPVDKGKVYRFGGDEFAVIYTGGTLEELLSILKEIVHFQVGSINLSTSIGVAHSNECPTVERLKMLADERLYKSKKNGRAQISWQ				5.51 ± 1.1 h		5.63 ± 1.6 h		6.47 ± 1.1 h		6.08 ± 0.31 h	13.1 ± 1.4 h	
MKAFDLHRMAFDKVPFDFLGEVALRSLYTFVLVFLFLKMTGRRGVRQMSLFEVLIILTLGSAAGDVAFYDDVPMVPVLIVFITLALLYRLVMWLMAHSEKLEDLLEGKPVVIIEDGELAWSKLNNSNMTEFEFFMELRLRGVEQLGQVRLAILETNGQISVYFFEDDKVKPGLLILPSDCTQRYKVVPESADYACIRCSEIIHMKAGEKQLCPRCANPEWTKASRAKRVT	6.17 h	5.53 h	5.11 ± 0.43 h	5.8 ± 0.11 h		> 8 h	11.8 h		> 16 h		12.1 ± 0.66 h	6.22 ± 1.1 h
MSTRTPSSSSSRLMLTIGLCFLVALMEGLDLQAAGIAAGGIAQAFALDKMQMGWIFSAGILGLLPGALVGGMLADRYGRKRILIGSVALFGLFSLATAIAWDFPSLVFARLMTGVGLGAALPNLIALTSEAAGPRFRGTAVSLMYCGVPIGAALAATLGFAGANLAWQTVFWVGGVVPLILVPLLMRWLPESAVFAGEKQSAPPLRALFAPETATATLLLWLCYFFTLLVVYMLINWLPLLLVEQGFQPSQAAGVMFALQMGAASGTLMLGALMDKLRPVTMSLLIYSGMLASLLALGTVSSFNGMLLAGFVAGLFATGGQSVLYALAPLFYSSQIRATGVGTAVAVGRLGAMSGPLLAGKMLALGTGTVGVMAASAPGILVAGLAVFILMSRRSRIQPCADA							5.24 h					
MARTKLKFRLHRAVIVLFCLALLVALMQGASWFSQNHQRQRNPQLEELARTLARQVTLNVAPLMRTDSPDEKRIQAILDQLTDESRILDAGVYDEQGDLIARSGESVEVRDRLALDGKKAGGYFNQQIVEPIAGKNGPLGYLRLTLDTHTLATEAQQVDNTTNILRLMLLLSLAIGVVLTRTLLQGKRTRWQQSPFLLTASKPVPEEEESEKKE [P0AGC7]	4.93 ± 0.059 h	4.9 ± 1 h	4.57 ± 0.81 h	4.34 ± 0.23 h	3.05 ± 0.13 h	6.19 ± 1.3 h		3.69 ± 0.5 h	6.81 ± 0.24 h	5.23 ± 0.067 h	9.34 ± 0.24 h	4.45 ± 0.17 h
MTPGGQAQIGNVDLVKQLNSAAVYRLIDQYGPISRIQIAEQSQLAPASVTKITRQLIERGLIKEVDQQASTGGRRAISIVTETRNFHAIGVRLGRHDATITLFDLSSKVLAEEHYPLPERTQQTLEHALLNAIAQFIDSYQRKLRELIAISVILPGLVDPDSGKIHYMPHIQVENWGLVEALEERFKVTCFVGHDIRSLALAEHYFGASQDCEDSILVRVHRGTGAGIISNGRIFIGRNGNVGEIGHIQVEPLGERCHCGNFGCLETIAANAAIEQRVLNLLKQGYQSRVPLDDCTIKTICKAANKGDSLASEVIEYVGRHLGKTIAIAINLFNPQKIVIAGEITEADKVLLPAIESCINTQALKAFRTNLPVVRSELDHRSAIGAFALVKRAMLNGILLQHLLEN [P0AF20]	6.14 ± 0.17 h	5.92 ± 0.068 h	6.27 ± 0.59 h	5.92 ± 1.2 h	2.98 ± 0.067 h	6.44 ± 0.24 h	11.3 ± 1.7 h	5.9 ± 0.28 h	13 ± 0.3 h	6.58 ± 0.7 h	15.1 ± 0.32 h	5.96 ± 0.13 h
MGIIAQNKISSLGMLFGAIALMMGIIHFSFGPFSAPPPTFESIVADKTAEIKRGLLAGIKGEKITTVEKKEDVDVDKILNQSGIALAIAALLCAFIGGMRKENRWGIRGALVFGGGTLAFHTLLFGIGIVCSILLIFLIFSFLTGGSLV								5.09 h				
